PMC7954794, “Protein context shapes the specificity of SH3 domain-mediated interactions in vivo” (Nature Communications, 2021)

B1: Sla1 1|2|3: WT Sla1 (Sla1-GFP in imaging) (protein, UniProt P32790 1-1244, looked up)
Actin cytoskeleton-regulatory …: MTVFLGIYRAVYAYEPQTPEELAIQEDDLLYLLQKSDIDDWWTVKKRVIGSDSEEPVGLVPSTYIEEAPVLKKVRAIYDYEQVQNADEELTFHENDVFDVFDDKDADWLLVKSTVSNEFGFIPGNYVEPENGSTSKQEQAPAAAEAPAATPAAAPASAAVLPTNFLPPPQHNDRARMMQSKEDQAPDEDEEGPPPAMPARPTATTETTDATAAAVRSRTRLSYSDNDNDDEEDDYYYNSNSNNVGNHEYNTEYHSWNVTEIEGRKKKKAKLSIGNNKINFIPQKGTPHEWSIDKLVSYDNEKKHMFLEFVDPYRSLELHTGNTTTCEEIMNIIGEYKGASRDPGLREVEMASKSKKRGIVQYDFMAESQDELTIKSGDKVYILDDKKSKDWWMCQLVDSGKSGLVPAQFIEPVRDKKHTESTASGIIKSIKKNFTKSPSRSRSRSRSKSNANASWKDDELQNDVVGSAAGKRSRKSSLSSHKKNSSATKDFPNPKKSRLWVDRSGTFKVDAEFIGCAKGKIHLHKANGVKIAVAADKLSNEDLAYVEKITGFSLEKFKANDGSSSRGTDSRDSERERRRRLKEQEEKERDRRLKERELYELKKARELLDEERSRLQEKELPPIKPPRPTSTTSVPNTTSVPPAESSNNNNSSNKYDWFEFFLNCGVDVSNCQRYTINFDREQLTEDMMPDINNSMLRTLGLREGDIVRVMKHLDKKFGRENIASIPTNATGNMFSQPDGSLNVATSPETSLPQQLLPQTTSPAQTAPSTSAETDDAWTVKPASKSESNLLSKKSEFTGSMQDLLDLQPLEPKKAAASTPEPNLKDLEPVKTGGTTVPAAPVSSAPVSSAPAPLDPFKTGGNNILPLSTGFVMMPMITGGDMLPMQRTGGFVVPQTTFGMQSQVTGGILPVQKTGNGLIPISNTGGAMMPQTTFGAAATVLPLQKTGGGLIPIATTGGAQFPQTSFNVQGQQQLPTGSILPVQKTANGLISANTGVSMPTVQRTGGTMIPQTSFGVSQQLTGGAMMTQPQNTGSAMMPQTSFNAVPQITGGAMMPQTSFNALPQVTGGAMMPLQRTGGALNTFNTGGAMIPQTSFSSQAQNTGGFRPQSQFGLTLQKTGGIAPLNQNQFTGGAMNTLSTGGVLQQQQPQTMNTFNTGGVMQELQMMTTFNTGGAMQQPQMMNTFNTDGIMQQPQMMNTFNTGGAMQQPQQQALQNQPTGFGFGNGPQQSRQANIFNATASNPFGF
modifications: GFP tag in imaging
B2: ABP1 E13E (protein, UniProt P15891 2-592, looked up)
Actin-binding protein: ALEPIDYTTHSREIDAEYLKIVRGSDPDTTWLIISPNAKKEYEPESTGSSFHDFLQLFDETKVQYGLARVSPPGSDVEKIIIIGWCPDSAPLKTRASFAANFAAVANNLFKGYHVQVTARDEDDLDENELLMKISNAAGARYSIQTSSKQQGKASTPPVKKSFTPSKSPAPVSKKEPVKTPSPAPAAKISSRVNDNNDDDDWNEPELKERDFDQAPLKPNQSSYKPIGKIDLQKVIAEEKAKEDPRLVQKPTAAGSKIDPSSDIANLKNESKLKRDSEFNSFLGTTKPPSMTESSLKNDDDKVIKGFRNEKSPAQLWAERKAKQNSGNAETKAEAPKPEVPEDEPEGEPDVKDLKSKFEGLAASEKEEEEMENKFAPPPKKSEPTIISPKPFSKPQEPVKAEEAEQPKTDYKKIGNPLPGMHIEADNEEEPEENDDDWDDDEDEAAQPPLPSRNVASGAPVQKEEPEQEEIAPSLPSRNSIPAPKQEEAPEQAPEEEIEEEAEEAAPQLPSRSSAAPPPPPRRATPEKKPKENPWATAEYDYDAAEDNELTFVENDKIINIEFVDDDWWLGELEKDGSKGLFPSNYVSLGN
modifications: synonymous codon change E13E
B3: ABP1 N15N (protein, UniProt P15891 2-592, looked up)
Actin-binding protein: B2 Actin-binding protein
modifications: synonymous codon change N15N
B4: ABP1 D14D (protein, UniProt P15891 2-592, looked up)
Actin-binding protein: B2 Actin-binding protein
modifications: synonymous codon change D14D
B5: ABP1 E16E (protein, UniProt P15891 2-592, looked up)
Actin-binding protein: B2 Actin-binding protein
modifications: synonymous codon change E16E
B6: Bem1 WT (protein, UniProt P29366 1-551, looked up)
Bud emergence protein 1: MLKNFKLSKRDSNGSKGRITSADISTPSHDNGSVIKHIKTVPVRYLSSSSTPVKSQRDSSPKNRHNSKDITSPEKVIKAKYSYQAQTSKELSFMEGEFFYVSGDEKDWYKASNPSTGKEGVVPKTYFEVFDRTKPSSVNGSNSSSRKVTNDSLNMGSLYAIVLYDFKAEKADELTTYVGENLFICAHHNCEWFIAKPIGRLGGPGLVPVGFVSIIDIATGYATGNDVIEDIKSVNLPTVQEWKSNIARYKASNISLGSVEQQQQQSITKPQNKSAKLVDGELLVKASVESFGLEDEKYWFLVCCELSNGKTRQLKRYYQDFYDLQVQLLDAFPAEAGKLRDAGGQWSKRIMPYIPGPVPYVTNSITKKRKEDLNIYVADLVNLPDYISRSEMVHSLFVVLNNGFDREFERDENQNNIKTLQENDTATFATASQTSNFASTNQDNTLTGEDLKLNKKLSDLSLSGSKQAPAQSTSGLKTTKIKFYYKDDIFALMLKGDTTYKELRSKIAPRIDTDNFKLQTKLFDGSGEEIKTDSQVSNIIQAKLKISVHDI
B7: Bzz1 WT (protein, UniProt P38822 1-633, looked up)
Protein BZZ1: MSADLSIGNEIKDSFKETHKWVQNNLKWLKDIEQFYRERAKLEKDYSERLSRLSAEYFNKKSSTSVPISVGDTPTTTPGSIEAAGVVAWNEILSQTDMISKDHDQLSTDFENHVANQLSGLFTKLDMTLSKINGFNNDMVNKKDNIYHELEKAKKDYDEACSTMEMARNRYTKASNDRNKKKLDEKEMEMNKCKNEYLIKINQANRTKDKYYFQDVPEVLDLLQDVNEAKTLFLNDLWLKAASVENDLGANVSKRLQAANSVVKQNKPSLNTAIFIKHNLKNWKEPQDFVYKPSPVWHDDEKFAVPSSLEVEDLRIKLAKAENDYNSLQDKTQNELSKLSTLNKIKHEMKTNEDNINATKFYDTLKEYLNVVSPFTSHETLKLQAEVQIESIQNNVPEEYDLSTDNIDLSKTKKKSGIFSKFKHNILNVDSKPSSGGSTGNGNGGPLHITSLFNTSRRTRLGSAPNNAGEDSDNNSIRTTSTNNTKKTTQNSSDDGKNKVLYAYVQKDDDEITITPGDKISLVARDTGSGWTKINNDTTGETGLVPTTYIRISSAATVKANDRGPAPEVPPPRRSTLPVRTMEAIYAYEAQGDDEISIDPGDIITVIRGDDGSGWTYGECDGLKGLFPTSYCK

How the values were obtained:
Type in all cases: cell-based, Saccharomyces cerevisiae
Sla1-GFP foci = experiment: Live imaging of endocytosis, Sla1-GFP foci tracking (Fig. 4E-H, S5E-I); settings: for mean effective distance towards centroid: n 3286
Experimental: Overnight cultures of Sla1-GFP cells were diluted to an OD600 of 0.15 and grown in synthetic complete medium without tryptophan until they reached an OD600 of ~0.4–0.5 at 30 °C. The cells were then seeded on concanavalin A 0.05 mg/mL (Millipore Sigma) coated 8-well glass-bottom chamber slides (Sarstedt). Image acquisition was performed using a Perkin Elmer UltraVIEW confocal spinning disk unit attached to a Nikon Eclipse TE2000-U inverted microscope equipped with a Plan Apochromat DIC H 100×/1.4 oil objective (Nikon), and a Hamamatsu Orca Flash 4.0 LT + camera. Imaging was done at 25 °C in an environmental chamber. The software NIS-Elements (Nikon) was used for image capture. For each field, one brightfield and a series of fluorescence (GFP) images were taken. Cells were excited with a 488 nm laser and emission was filtered with a 530/630 nm filter. GFP time laps were acquired continuously at a rate of 1 frame/sec for 3 min.
Bright-field images were used to segment cells using YeastSpotter[60]. Cells were filtered based on circularity, solidity, and the normalized difference between minor and major axis lengths to remove poorly detected cells. Out-of-focus cells were also filtered out based on size and brightness. The centroids of the segmented cells were used to identify the locations of each cell in the image using Scikit-Image[61]. The location of each cell was used to isolate individual cell time-frames of fluorescence (GFP) images. Each cell time frame of the fluorescence images was processed through a python-based single-particle tracking tool—Trackpy[62]. Trackpy detected the locations of Sla1-GFP positive foci in each frame and linked them together to provide particle-wise trajectories. Trajectories detected in less than ten frames were considered spurious and were filtered out. Segments of the trajectories spuriously indicating movement of the particles back to the cell membrane were trimmed. The preprocessed trajectories of the particles were then used for the calculation of distances using the spatial distance module of “SciPy”[63]. The python-based code used for the analysis of microscopy images is included in the endocytosis module of “htsimaging” package.

Lsb3 = experiment: Deep mutational scanning of Abp1 SH3, Abp1-Lsb3 DHFR-PCA (DMS score); settings: for lsb3sc (DMS score): Frequencies scaled to the synonymous mutation distribution (DMS score), Lsb3; for LSB3_MTX2: frequencies normalized to the reference condition, Abp1-Lsb3, MTX2
Outline: (§1)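 Saturation mutagenesis (NNN per codon) of Abp1 SH3, reintegrated at the genomic locus in yeast and mated with Hua2- or Lsb3-DHFR F[3] prey strains. Diploids underwent two rounds of liquid DHFR-PCA selection (72 h each, 30 °C), in biological duplicate. Mutant abundance was tracked by Illumina sequencing against the pre-selection reference.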

Hua2 = experiment: Deep mutational scanning of Abp1 SH3, Abp1-Hua2 DHFR-PCA (DMS score); settings: for hua2sc (DMS score): Frequencies scaled to the synonymous mutation distribution (DMS score), Hua2; for HUA2_MTX2: frequencies normalized to the reference condition, Abp1-Hua2, MTX2
Outline: as §1

Hua2 and Lsb3 = experiment: Quadrant classification of Abp1 SH3 variants from DMS scores (Abp1-Hua2 and Abp1-Lsb3 DHFR-PCA); settings: class by effect on Hua2 and Lsb3 PPIs (Dest. both / Dest. Hua2 / Dest. Lsb3 / Neutral)
[1] = tested on: SH3-deleted bait proteins (1xFLAG); experiment: Western blot expression level of SH3-deleted baits (Fig. S1F-G); settings: Western blot Flag signal, 1xFLAG-tagged WT or SH3-deleted bait; sheet FigS1F-G
Experimental: Precultures of yeast cells expressing baits fused with the DHFR F[1,2]-FLAG were grown overnight at 30 °C with agitation in synthetic complete medium. The next day, cells were expanded in synthetic complete medium to reach their exponential phase (OD600 of around 1.0), pelleted, and frozen at −80 °C. The equivalent of fifty OD600 of cells was resuspended in ice-cold yeast lysis buffer (10 mM Tris-HCl pH 7.4, 150 mM NaCl, 0.5 mM EDTA (Millipore Sigma), 1% Triton X-100 (Millipore Sigma), and one cOmplete Mini Protease Inhibitor Cocktail (Millipore Sigma) per 10 mL) with […] glass beads (Millipore Sigma) and disrupted at 4 °C by 10 cycles of 2 min vortexing and 2 min cooldown. The equivalent of […] of lysed cells was used for the immunoprecipitation of the bait proteins using FLAG-M2 agarose beads (Millipore Sigma). The beads were incubated with the cell lysates for 120 min at 4 °C with a slow rotation, followed by three washes with the yeast lysis buffer.
Protein extracts and affinity-purified baits from yeast and human lysed cells were migrated on 10% polyacrylamide gels. The separated proteins were then transferred to nitrocellulose membranes. Validation of correct protein loading was done with ponceau staining of the membranes. Before the primary antibody incubations, membranes were blocked in 5% milk. Protein signals were detected on an Amersham Imager 600RGB (GE Healthcare) following the incubation of the membranes with the appropriate HRP-conjugated secondary antibodies and the Clarity Western ECL Substrate (Bio-Rad). The antibodies used in this study are M2-HRP (A8592, Sigma, 1/50,000), rabbit anti-FLAG (F7425, Sigma, 1/1000), PAK (SC-881, Santa Cruz, 1/200), p130cas/BCAR1 (SC-860, Santa Cruz, 1/200), actin (Cell Signaling Technology, 1/2000), anti-mouse HRP (Cell Signaling Technology, 1/10,000) and anti-rabbit HRP (Cell Signaling Technology, 1/10,000). The quantification of the WB signals was performed with the Amersham Imager 600 analysis software (GE Healthcare).

[2] = Fig4H,S5G, SLA1 SH3-shuffled or -deleted strain

| Molecule | lsb3sc (DMS score) (Lsb3) | LSB3_MTX2 (Lsb3) | hua2sc (DMS score) (Hua2) | HUA2_MTX2 (Hua2) | quadrant (Hua2 and Lsb3) | further results |
| --- | --- | --- | --- | --- | --- | --- |
| B1 | – | – | – | – | – | complete (Sla1-GFP foci; [2]): 23.1408; incomplete (Sla1-GFP foci; [2]): 3.31; mean effective distance towards centroid (Sla1-GFP foci; time 0): 0; mean effective distance towards centroid (Sla1-GFP foci; time 1): 1.1628; mean effective distance towards centroid (Sla1-GFP foci; time 2): 1.132; mean effective distance towards centroid (Sla1-GFP foci; time 3): 2.413; mean effective distance towards centroid (Sla1-GFP foci; time 4): 3.293 |
| B2 | -0.3311 | 1.169 | -0.2784 | 1.334 | Neutral | – |
| B3 | 0.1386 | 1.639 | -0.2193 | 1.393 | Neutral | – |
| B4 | -0.6602 | 0.8401 | 0.002961 | 1.616 | Neutral | – |
| B5 | 0.1832 | 1.684 | 0.3666 | 1.979 | Neutral | – |
| B6 | – | – | – | – | – | Flag [1]: 104455 |
| B7 | – | – | – | – | – | Flag [1]: 215050 |
